Experimental findings from article PMC2748841 (Nature, 2009) are described below.

Usually Kd stands for the constant that tells how readily two partners part at equilibrium. Read a low Kd as higher affinity.

Sequences and labels used below:
B1: cellular Prion Protein (PrP^C), full-length mouse PrP expressed on COS-7 cells (receptor)
chain: not shown
B2: Amyloid precursor-like protein 1 (APLP1) (natural protein)
chain: SLAGGSPGAAEAPGSAQVAGLCGRLTLHRDLRTGRWEPDPQRSRRCLRDPQRVLEYCRQMYPELQIARVEQATQAIPMERWCGGSRSGSCAHPHHQVVPFRCLPGEFVSEALLVPEGCRFLHQERMDQCESSTRRHQEAQEACSSQGLILHGSGMLLPCGSDRFRGVEYVCCPPPGTPDPSGTAVGDPSTRSWPPGSRVEGAEDEEEEESFPQPVDDYFVEPPQAEEEEETVPPPSSHTLAVVGKVTPTPRPTDGVDIYFGMPGEISEHEGFLRAKMDLEERRMRQINEVMREWAMADNQSKNLPKADRQALNEHFQSILQTLEEQVSGERQRLVETHATRVIALINDQRRAALEGFLAALQADPPQAERVLLALRRYLRAEQKEQRHTLRHYQHVAAVDPEKAQQMRFQVHTHLQVIEERVNQSLGLLDQNPHLAQELRPQIQELLHSEHLGPSELEAPAPGGSSEDKGGLQPPDSKDDTPMTLPKGSTEQDAASPEKEKMNPLEQYERKVNASVPRGFPFHSSEIQRDELAPAGTGVSREAVSGLLIMGAGGGSLIVLSMLLLRRKKPYGAISHGVVEVDPMLTLEEQQLRELQRHGYENPTYRFLEERP
B3: Transmembrane protein 30B (TMEM30B) (natural protein)
chain: MTWSATARGAHQPDNTAFTQQRLPAWQPLLSASIALPLFFCAGLAFIGLGLGLYYSSNGIKELEYDYTGDPGTGNCSVCAAAGQGRALPPPCSCAWYFSLPELFQGPVYLYYELTNFYQNNRRYGVSRDDAQLSGLPSALRHPVNECAPYQRSAAGLPIAPCGAIANSLFNDSFSLWHQRQPGGPYVEVPLDRSGIAWWTDYHVKFRNPPLVNGSLALAFQGTAPPPNWRRPVYELSPDPNNTGFINQDFVVWMRTAALPTFRKLYARIRQGNYSAGLPRGAYRVNITYNYPVRAFGGHKLLIFSSISWMGGKNPFLGIAYLVVGSLCILTGFVMLVVYIRYQDQDDDDEE

For this test, the target named is biotin-Aβ42-oligomer (UniProt P05067). Briefly: binding of biotinylated ligand to transfected cells.
Consider B1, for which the Kd was 92 nM.
The molecule B2 returned a Kd of 660 nM.
Then B3, with 720 nM.
